Experimental data: patent US20150191542A1 (INNATE PHARMA S A, published 2015)
Changes are numbered by the printed parent chain. Where two headings read alike, the source gives them in different places. One block for each binder: values may come before it.

How the values were obtained:
[1] = target: T1, MICA*001 expressed on transfected cells (human); test: flow cytometry, MFI against antibody concentration on C1R-MICA*01 cells
T1 construct: the cells carry the complete allele; also called C1R-MICA*001; C1R-MICA*01
T1 chain: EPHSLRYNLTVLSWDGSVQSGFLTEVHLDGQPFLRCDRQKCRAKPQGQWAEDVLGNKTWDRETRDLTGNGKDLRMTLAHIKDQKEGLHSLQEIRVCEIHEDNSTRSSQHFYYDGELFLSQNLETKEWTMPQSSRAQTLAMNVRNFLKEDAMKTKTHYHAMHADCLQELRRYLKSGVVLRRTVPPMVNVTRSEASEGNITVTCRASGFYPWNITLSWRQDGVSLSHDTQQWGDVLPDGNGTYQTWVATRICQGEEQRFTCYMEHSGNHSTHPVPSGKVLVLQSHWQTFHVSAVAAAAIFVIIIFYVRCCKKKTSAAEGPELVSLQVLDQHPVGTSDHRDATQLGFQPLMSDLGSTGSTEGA
Experimental: (§1) The binding of antibodies obtained from the first and second immunization series (including 9C10, 20C6 and 16A8) were tested for binding to MICA-expressing CR1 transfectant cells C1R-MICA*001, C1R-MICA*004, C1R-MICA*007 and C1R-MICA*008 (Pr. A. Steinle, Eberhard-Karls University Tuebingen, Germany) described in Salih et al. (2003) Blood 102(4): […]. Binding was analyzed by flow cytometry.
(§2) Cells were harvested and stained in PBS 1×/BSA 0,2%/EDTA 2 mM buffer during 30 minutes at 4° C. using a dose-range of the anti-MICA mAbs. After two washes in staining buffer, cells were stained for 30 min at 4° C. with goat anti-mouse (H+L)-PE polyclonal antibodies (1/200). After two washes, stainings were acquired on a BD FACS Canto II and analyzed using the FlowJo software.

[2] = target: T2, MICA*004 expressed on C1R transfectant cells (human, UniProt Q29983 24-297, Glycosylated on cells; the letters do not carry this.); test: flow cytometry, MFI against antibody concentration on C1R-MICA*04 cells
T2 construct: also called C1R-MICA*004; C1R-MICA*04
T2 chain: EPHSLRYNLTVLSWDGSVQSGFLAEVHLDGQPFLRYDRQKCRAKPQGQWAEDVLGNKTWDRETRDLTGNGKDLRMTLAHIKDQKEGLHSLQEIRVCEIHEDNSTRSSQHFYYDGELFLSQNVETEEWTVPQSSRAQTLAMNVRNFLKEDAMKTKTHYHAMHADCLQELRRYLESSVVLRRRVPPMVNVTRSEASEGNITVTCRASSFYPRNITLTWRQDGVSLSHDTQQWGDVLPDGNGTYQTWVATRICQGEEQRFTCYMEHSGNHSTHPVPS

[3] = target: T3, MICA*007 expressed on C1R transfectant cells (human, UniProt Q29983 24-297, Glycosylated on cells; the letters do not carry this.); test: flow cytometry, MFI against antibody concentration on C1R-MICA*07 cells
T3 construct: also called C1R-MICA*007; C1R-MICA*07
T3 chain: T2 chain with Y36C, V122L, V129M, E173K, S175G, R181T, S206G, R210W, T215S

[4] = target: T4, MICA*008 expressed on C1R transfectant cells (human, UniProt Q29983 24-297, Glycosylated on cells; the letters do not carry this.); test: flow cytometry, MFI against antibody concentration on C1R-MICA*08 cells
T4 construct: also called C1R-MICA*008; C1R-MICA*08
T4 chain: T2 chain with V122L, S175G, R181T, T213I, Q251R

[5] = target: T2, MICA*004 expressed on C1R transfectant …; test: flow cytometry, MFI against antibody concentration on C1R-MICA*04 cells
Experimental: as §1, §2

[6] = target: T3, MICA*007 expressed on C1R transfectant …; test: flow cytometry, MFI against antibody concentration on C1R-MICA*07 cells
Experimental: as §1, §2

[7] = target: T3, MICA*007 expressed on C1R transfectant …; test: flow cytometry on C1R-MICA*007 cells, 3-parameter logistic fit
Experimental: as §1, §2
(§3) Antibodies 9C10, 20C6 and 16A8 bound to each of the C1R-MICA*001, C1R-MICA*004, C1R-MICA*007 and C1R-MICA*008 cells (see FIGS. 3A, 3B and 3C for antibodies 9C10, 20C6 and 16A8 respectively). […] EC50 values are shown in Table C in μg/ml (calculated using a 3-parameter logistic fit).

[8] = target: T4, MICA*008 expressed on C1R transfectant …; test: flow cytometry on C1R-MICA*008 cells, 3-parameter logistic fit
Experimental: as §1, §2, §3

[9] = target: T5, recombinant human MICA extracellular domain recombinant-Fc protein (MICA*019 allele) (human, UniProt Q29983 24-297); test: SPR Biacore T100 (FIG. 1)
T5 construct: Bought from R&D Systems; also called MICA*019-Fc; MICA-Fc; not shown: Fc part of the bought fusion protein (R&D Systems)
T5 chain: T2 chain with V122L, R181T, T213I, Q251R
Experimental: The binding of 9C10, 20C6 and 16A8 to either recombinant human MICA extracellular domain recombinant protein monomers or dimers (MICA*019 allele-Fc protein or MICA*001-His protein) as well as other NKG2D ligands MICB and ULBP1-2 was analyzed by Surface Plasmon Resonance (SPR) using a Biacore T100 apparatus to obtain monovalent and bivalent affinity, respectively. Biotinylated anti-MICA antibodies were injected at a constant rate of 10 μl/min over the Sensor Chip CAP flow-cells comprising Biotin CAPture Reagent. MICA-Fc or MICA-His protein, MICB-Fc, ULBP1-Fc or ULBP2-Fc protein is then injected successively (range of concentrations between 0.01-100 nM), with regeneration between injections, and in increasing order over two flowcells simultaneously. Curves are fitted using Biacore T100 Evaluation software.
(a) General Biacore T100 methods. SPR measurements were performed on a Biacore T100 apparatus (Biacore GE Healthcare) at 25° C. In all Biacore experiments HBS-EP+ buffer (Biacore GE Healthcare) or 10 mM sodium acetate pH 7.4, 150 mM NaCl, 0.05% P20 served as running buffer and sensorgrams were analyzed with Biaevaluation 4.1 and Biacore T100 Evaluation software. Recombinant human and mouse TLR3 were purchased from R&D Systems.

[10] = target: T2, MICA*004 expressed on C1R transfectant …; test: flow cytometry on C1R-MICA*004 cells, 3-parameter logistic fit
Experimental: as §1, §2, §3

[11] = target: T4, MICA*008 expressed on C1R transfectant …; test: flow cytometry, MFI against antibody concentration on C1R-MICA*08 cells
Experimental: as §1, §2

[12] = target: T1, MICA*001 expressed on transfected cells; test: flow cytometry on C1R-MICA*001 cells, 3-parameter logistic fit
Experimental: as §1, §2, §3

B1: CHG1-M-MIA-12A10 (antibody, V domains shown)
VH: QVQLQQSGADLVRPGASVRLSCRASGYSFTNYWMNWVKQRPGQGLEWIGMIHPSDSETRLNQKFKDKATLTVDKSSNTAYMQLSSPTSEDSAIYYCARDDFFTMDYWGQGTSVTVSS
VL: DILLTQSPAILSVSPGERVSFSCRASQNIVTSIHWYQQSTNGSPRLLIKYASESISGIPSRFSGSGSGTDFTLTINSVESEDVADYYCQQSNIWPLTFGAGTKLELK
EC50 (read off the curve) [1]: ~1 µg/mL

B4: CHG1-M-MIA-10F3 (antibody, V domains shown)
VH: QVQLQQSAAELARPGASVKMSCKASGYTFTSYTMHWVKQRPGQGLEWIGYINPSSGYTEYNQKFKDKTTLTVDKSSTTSYMQLSSLTSDNSAVYYCARGGDWDVDWFVYWGQGTLVTVSA
VL: QIVLTQSPAIMSASPGEKVTITCSASSSISYMHWFQQKPGTSPKLWIYSTSKLASGVPARFSGSGSGTSHSLTISRMEAEDAATYYCQHRSTYPFTFGSGTKLEIK
EC50 (read off the curve) [1]: ~0.5 µg/mL

More lines, now with the values ahead:

EC50 (read off the curve) [2]: ~0.5 µg/mL
binding result [3]: binds
EC50 (read off the curve) [4]: ~0.8 µg/mL
B2: CHG1-M-MIA-15F9 (antibody, V domains shown)
VH: DVQLQESGPDLVKPSQSLSLTCTVTGYSITSGYSWHWIRQFPGNKLEWMGFIHYSGSTDYNPSLKSRISLTRDTSKNQFFLQLNSVSTEDTATYYCAKDYGHWYFDVWGAGTTVTVSS
VL: SIVMTQTPKFLLVSAGDRVTITCKASQSVSYDVAWYQQKPGQSPKLLIFYASNRYTGVPARFTGSGYGTDFTFTISTVQAEDLAVYFCQQDYSSLTFGAGTKLELK

EC50 (read off the curve) [1]: ~0.3 µg/mL
EC50 (read off the curve) [5]: ~0.07 µg/mL
EC50 (read off the curve) [6]: ~0.5 µg/mL
EC50 [7]: 1.58 µg/mL
EC50 [8]: 0.17 µg/mL
binding result [9]: binds
EC50 [10]: 0.08 µg/mL
EC50 (read off the curve) [11]: ~0.2 µg/mL
EC50 [12]: 0.3 µg/mL
B3: antibody 20C6 (antibody, V domains shown)
VH: QITLKESGPGILKPSQTLSLTCSFSGFSLSTSGMGVGWIRQPSGKGLEWLAHIWWDDDKYYNPSLKSQLTISKDTSRNQVFLRITSVDTADTATYYCARRTQGYFDYWGQGTTLTVSS
VL: DIVMTQSPATLSVTPGDRVSLSCRASQSISDYLHWYQQKSHESPRLLIKYASQSISGIPSRFSGSGSGSDFTLSINSVEPEDVGVYYCQNGHSFPWTFGGGTKLEIK
notes: Murine hybridoma antibody of IgG1 isotype as tested

EC50 (read off the curve) [1]: ~0.5 µg/mL
B5: CHG1-M-MIA-18E8 (antibody, V domains shown)
VH: DVQLQESGPDLVNPSQSLSLICTVTGYSITSDYSWHWIRQFPGNKLEWMGNIHYSGRINYNPSLRSRISITRDTSKNQFFLQLISVTTEDTATYYCATRRTFGNFEDYWGQGTTLTVSS
VL: QIVLSQSPATLSVSPGEKVTMTCRSSSSVNYMHWYQQKPGSSPKPWIYATSTLASGVPARFSGSGSGTSYSLTISRVEAEDAATYYCQQWSSNPLTFGAGTKLELK
